Experimental data taken from US20250277790A1 (Johns Hopkins, published 2025).

Molecular target: human EGFR tagged with the fluorescent protein mTurquoise at the C-terminus (wild-type), in plasma … (human, UniProt P00533 25-1210)
Experiment: cell-based or functional assay

B1: EGF ligand from mouse labeled with rhodamine at its N-terminus (rho-mEGF, Thermofisher, E3481) (ligand, UniProt P01132 977-1029, looked up)
chain: NSYPGCPSSYDGYCLNGGVCMHIESLDSYTCNCVIGYSGDRCQTRDLRWWELR
modifications: not fully specified; rhodamine (tetramethylrhodamine) at the N-terminus
EC50 of Y1068 phosphorylation per EGFR molecule: 5.5 nM
EC50 of Y1173 phosphorylation per EGFR molecule: 6.8 nM
